B1: 7B13 (antibody, V domains shown)
VH: QVQLVESGGGVVQPGGSLRLSCAASGFSFSNYGMHWVRQAPGKGLEWVALIPSDGNYQYYTDSVKGRFTVSRDNSRNTLYLQMKSLRAEDTARYHCAHLGGGLFDFWGQGTLVTVSS
VL: QSALNQPRSVSGSPGQSVSISCTGSSSDVGGYEFVSWYQHHPGKAPKLIIYDVDKRPSGVPDRFSGSRSGDTASLTISGLQAEDEADYYCYSSADTWVFGGGTKLTVL
notes: human IgG
B2: 7I13 (antibody, V domains shown)
VH: QVQLVESGGGVVQPGRSLRLSCAASGFTFSNYGMHWVRQGPGKGLEWVAVISYDASSKYYTDSVQGRFTISRDNSKNTLFLQMNSLRGEDTAVYYCAKALRYLDWFLSDPFDYWGQGTLVTVSS
VL: EIVLTQSPGTLSLSPGERATLSCRASQSVSSDFLAWYQQKPGQAPRLLIYGASSRATGIPDRFSGSGSGTDFTLTISRLEPEDFAVYYCQQYAASPPFGQGTRLEIK
notes: human IgG; also called 7113
B3: 8J16 (antibody, V domains shown)
VH: QVQLQESGPGLVKPSETLSLTCSVSGGFTSSYYWSWIRQAPGKGLEWIGYVYYGESTDYNPSLKSRATISIDTSKNQFSLKLSSVTAADTAVYYCAREVDKRGFDYWGQGALVTVSS
VL: EIVLTQSPGTLSLSPGERATLSCRASQSVSGGYLAWYQQEPGQAPRLVIYGASSRATGIPDRFSASGSGTDFTLTITRLEPEDFAVYYCQQYGRTPLTFGGGTKVEIK
notes: human IgG; also called 8J16-biotin
B4: 8C15 (antibody, V domains shown)
VH: QVQLQESGPGLVKPSETLSLTCTVSGGSIRSYYWSWIRQPPGKGLEWIGHIYYSGNTNYSPSLQSRVTISLDTPKNQFSLRLSSVTAADTAVYYCARHDVIVVRGVFDVWGQGTVVTVSS
VL: QSALTQPASVSGSPGQSITISCTGTSSDIGTYNLVSWYQQHPGKAPKVLIYDGSKRPSGVSSRFSASKSGNTASLTISGLQAEDETDYYCCSYAGTSDFFVVFGGGTKLTVL
notes: human IgG; also called 8C15-biotin

The results in this text go back to patent US20170296650A1 (Novartis, published 2017).

T2 sequence (P16837 whole entry, chain 1 of 2): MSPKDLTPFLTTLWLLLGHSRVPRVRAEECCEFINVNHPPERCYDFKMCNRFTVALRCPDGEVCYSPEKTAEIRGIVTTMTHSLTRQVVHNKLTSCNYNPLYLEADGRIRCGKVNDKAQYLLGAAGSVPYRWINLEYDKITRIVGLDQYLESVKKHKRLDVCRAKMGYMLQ
T2 sequence (P16772 whole entry, chain 2 of 2): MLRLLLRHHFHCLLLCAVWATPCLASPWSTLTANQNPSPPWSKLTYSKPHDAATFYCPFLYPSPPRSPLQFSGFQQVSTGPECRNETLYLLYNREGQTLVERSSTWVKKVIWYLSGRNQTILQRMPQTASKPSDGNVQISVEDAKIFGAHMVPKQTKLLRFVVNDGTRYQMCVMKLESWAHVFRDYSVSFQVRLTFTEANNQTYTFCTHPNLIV

One assay addresses T1, hCMV gH + gL + UL128 + UL130 + UL131A (5-member complex; HEK293T co-transfectant) (hCMV, UniProt P12824 24-743; P16832 31-278; P16837 1-171; P16772 1-214).
T1 construct: whole, on cells; in the functional rows it stands for the complex on virions or transduced cells of the strain or isolate named in the readout; also called gH/gL/UL128-131A complex; pentameric complex
Description: cell competition; competitor 8J16-biotin.
For the molecule B1, the “Inhibition of binding (%)” value came out at 100%.

As to B2, the “Inhibition of binding (%)” value turned out to be 0%.

Consider B3, for which the “Inhibition of binding (%)” value amounted to 100%.

Consider B4, for which the “Inhibition of binding (%)” value is 100%.

The target in another assay is T1, hCMV gH + gL + UL128 + UL130 + UL131A …. Description: cell competition; competitor 4I22-biotin.
For the molecule B3, the “Inhibition of binding (%)” value was 0%.

Take B4: the “Inhibition of binding (%)” value amounted to 0%.

The next assay has as its target T2, hCMV UL128 + UL130 + UL131A (HEK293T co-transfectant) (hCMV, UniProt P16837 1-171; P16772 1-214). Put plainly: cell-based or functional assay.
Regarding B1, the “50% neutralization VR1814, ARPE” value is < 0.001 µg/mL and the “50% neutralization VR1814, MRC-9” value was > 2 µg/mL.

In the case of B2, the “50% neutralization VR1814, ARPE” value is < 0.01 µg/mL and the “50% neutralization VR1814, MRC-9” value was > 2 µg/mL.

B3: the “50% neutralization VR1814, ARPE” value was < 0.001 µg/mL and the “50% neutralization VR1814, MRC-9” value was > 2 µg/mL.

As to B4, the “50% neutralization VR1814, ARPE” value is < 0.001 µg/mL and the “50% neutralization VR1814, MRC-9” value was > 2 µg/mL.

The target in the next assay is T1, hCMV gH + gL + UL128 + UL130 + UL131A …. Description: cell competition; competitor 2F4-biotin.
Turning to B3, the “Inhibition of binding (%)” value turned out to be 0%.

The target is the same in a further assay. Put plainly: cell competition; competitor 6G4-biotin.
Turning to B1, the “Inhibition of binding (%)” value amounted to 100%.

On to B2, for which the “Inhibition of binding (%)” value came out at 0%.

In the case of B3, the “Inhibition of binding (%)” value was determined as 100%.

Turning to B4, the “Inhibition of binding (%)” value came out at 100%.

Another assay shares this target. Description: cell competition; competitor 8C15-biotin.
As for B1, the “Inhibition of binding (%)” value amounted to 100%.

In the case of B2, the “Inhibition of binding (%)” value was found to be 0%.

As for B3, the “Inhibition of binding (%)” value stood at 100%.

Consider B4, for which the “Inhibition of binding (%)” value came out at 100%.

The target in a further assay is T2, hCMV UL128 + UL130 + UL131A (HEK293T …). Put plainly: cell-based or functional assay. This is another data set of the same source.
Consider B1, for which the “90% neutralization VR1814, ARPE” value is 0.003 µg/mL and the “90% neutralization VR1814, MRC-9” value was > 10 µg/mL.

As for B2, the “90% neutralization VR1814, ARPE” value came to 0.008 µg/mL and the “90% neutralization VR1814, MRC-9” value is > 10 µg/mL.

For the molecule B3, the “90% neutralization VR1814, ARPE” value was determined as 0.0008 µg/mL and the “90% neutralization VR1814, MRC-9” value was > 10 µg/mL.

For B4, the “90% neutralization VR1814, ARPE” value was determined as 0.0025 µg/mL and the “90% neutralization VR1814, MRC-9” value is > 10 µg/mL.

The target of another assay is T1, hCMV gH + gL + UL128 + UL130 + UL131A …. Put plainly: cell competition; competitor 2C12-biotin.
Consider B1, for which the “Inhibition of binding (%)” value worked out at 100%.

B2: the “Inhibition of binding (%)” value amounted to 0%.

For B3, the “Inhibition of binding (%)” value is 100%.

For B4, the “Inhibition of binding (%)” value was 100%.

A further assay has the same target. Put plainly: cell competition; competitor 1F11-biotin.
For the molecule B2, the “Inhibition of binding (%)” value stood at 0%.

For the molecule B3, the “Inhibition of binding (%)” value came to 0%.

The target is the same in another assay. Description: cell competition; competitor 8I21-biotin.
For the molecule B1, the “Inhibition of binding (%)” value was determined as 0%.

On to B2, for which the “Inhibition of binding (%)” value worked out at 0%.

As for B3, the “Inhibition of binding (%)” value worked out at 0%.

With B4, the “Inhibition of binding (%)” value amounted to 0%.

The next assay shares this target. Description: cell competition; competitor 9I6-biotin.
B1: the “Inhibition of binding (%)” value was found to be 100%.

As to B2, the “Inhibition of binding (%)” value came to 0%.

Take B3: the “Inhibition of binding (%)” value worked out at 70%.

For the molecule B4, the “Inhibition of binding (%)” value amounted to 100%.
